From patent US20250152742A1, “COMPOSITIONS AND METHODS FOR NEUROLOGICAL DISEASES” (Trames Bio, Inc., priority 2022, published 2025)

Tested on: engineered chimeric receptor SEQ ID NO: 33 and its mutants (human α7-nAChR ligand binding domain / human GlyRα1 ion pore domain) in Lenti-X 293T cells
Assay: YFP fluorescence quenching anion reporter plate reader assay (percent quench, EC50)
Assay type: cell-based
Settings: for YFP fluorescence quenching using CNL001 (percent quench): receptor named in row; for YFP fluorescence quenching using Varenicline, 3 nM var: ligand Varenicline 3 nM; for YFP fluorescence quenching using Varenicline, 30 nM var: ligand Varenicline 30 nM; for YFP fluorescence quenching using Varenicline, 300 nM var: ligand Varenicline 300 nM; for YFP fluorescence quenching using Varenicline, 500 nM var: ligand Varenicline 500 nM; for YFP fluorescence quenching using Varenicline, 1 uM var: ligand Varenicline 1 uM
In short: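 Lenti-X 293T cells co-expressing an anion-quenchable YFP were transiently transfected with receptor DNA, then ligand was added in NaI-substituted buffer (pH 7.2) after 30 min at 37 °C. Fluorescence was read about 2 min; percent quench = mean of last 10 s over 15 s pre-ligand baseline.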

[1] = 1 nM CNL001, first column so headed
[2] = 1 nM CNL001, second column so headed
[3] = 1 nM brd (TC-5619/Bradanicline)
[4] = 3 nM brd (TC-5619/Bradanicline)
[5] = 10 nM CNL001, first column so headed
[6] = 10 nM CNL001, second column so headed
[7] = 10 nM brd (TC-5619/Bradanicline)
[8] = 30 nM brd (TC-5619/Bradanicline)
[9] = 50 nM CNL001, first column so headed
[10] = 50 nM CNL001, second column so headed
[11] = 100 nM CNL001, first column so headed
[12] = 100 nM CNL001, second column so headed
[13] = 100 nM brd (TC-5619/Bradanicline)
[14] = 300 nM brd (TC-5619/Bradanicline)
[15] = 1 uM CNL001, first column so headed
[16] = 1 uM CNL001, second column so headed

B1: CODA1047: engineered receptor: R101F, Y210V in SEQ ID NO: 33 (protein)
chain: MRCSPGGVWLALAASLLHVSLQGEFQRKLYKELVKNYNPLERPVANDSQPLTVYFSLSLLQIMDVDEKNQVLTTNIWLQMSWTDHYLQWNVSEYPGVKTVFFPDGQIWKPDILLYNSADERFDATFHTNVLVNSSGHCQYLPPGIFKSSCPMDLKNFPMDVQTCKLKFGSWSYGGWSLDLQMQEADISGYIPNGEWDLVGIPGKRSERFVECCKEPYPDVTFTVTMRRRMGYYLIQMYIPSLLIVILSWISFWINMDAAPARVGLGITTVLTMTTQSSGSRASLPKVSYVKAIDIWMAVCLLFVFSALLEYAAVNFVSRQHKELLRFRRKRRHHKSPMLNLFQEDEAGEGRFNFSAYGMGPACLQAKDGISVKGANNSNTTNPPPAPSKSPEEMRKLFIQRAKKIDKISRIGFPMAFLIFNMFYWIIYKIVRREDVHNQ
modifications: synthetic sequence of chimeric LGIC
YFP fluorescence quenching using CNL001 (percent quench) [1]: −7.82%
YFP fluorescence quenching using CNL001 (percent quench) [2]: −8.382%
YFP fluorescence quenching using TC-5619/Bradanicline (percent quench) [3]: −5.548%
YFP fluorescence quenching using TC-5619/Bradanicline (percent quench) [4]: −9.432%
YFP fluorescence quenching using CNL001 (percent quench) [5]: −5.381%
YFP fluorescence quenching using CNL001 (percent quench) [6]: −1.431%
YFP fluorescence quenching using TC-5619/Bradanicline (percent quench) [7]: −3.068%
YFP fluorescence quenching using TC-6683 (percent quench) (30 nM TC-6683): −24.195%
YFP fluorescence quenching using TC-5619/Bradanicline (percent quench) [8]: 2.368%
YFP fluorescence quenching using CNL001 (percent quench) [9]: −0.999%
YFP fluorescence quenching using CNL001 (percent quench) [10]: 3.909%
YFP fluorescence quenching using ABT-126 (percent quench) (50 nM abt (ABT-126)): −14.1%
YFP fluorescence quenching using CNL001 (percent quench) [11]: −0.823%
YFP fluorescence quenching using CNL001 (percent quench) [12]: −5.885%
YFP fluorescence quenching using ABT-126 (percent quench) (100 nM abt (ABT-126)): −11.72%
YFP fluorescence quenching using TC-5619/Bradanicline (percent quench) [13]: 47.529%
YFP fluorescence quenching using TC-6683 (percent quench) (300 nM TC-6683): −24.234%
YFP fluorescence quenching using ABT-126 (percent quench) (300 nM abt (ABT-126)): −12.98%
YFP fluorescence quenching using TC-5619/Bradanicline (percent quench) [14]: 74.413%
YFP fluorescence quenching using CNL001 (percent quench) [15]: 1.638%
YFP fluorescence quenching using CNL001 (percent quench) [16]: 3.483%
YFP fluorescence quenching using ABT-126 (percent quench) (1 uM abt (ABT-126)): −15.09%
YFP fluorescence quenching using TC-6683 (percent quench) (3 uM TC-6683): −21.291%
YFP fluorescence quenching (percent quench) (10 uM ach (acetylcholine)): −4.26%
YFP fluorescence quenching using TC-6683 (percent quench) (30 uM TC-6683): −16.363%
YFP fluorescence quenching using TC-6683 (percent quench) (100 uM TC-6683): −24.9%
YFP fluorescence quenching (percent quench) (100 uM ach (acetylcholine)): −13.05%
YFP fluorescence quenching (percent quench) (300 uM ach (acetylcholine)): −11.73%
YFP fluorescence quenching (percent quench) (500 uM ach (acetylcholine)): −10.75%
YFP fluorescence quenching (percent quench) (1 mM ach (acetylcholine)): −8.81%
YFP fluorescence quenching (percent quench) (3 mM ach (acetylcholine)): −6.77%
YFP fluorescence quenching (percent quench) (10 mM ach (acetylcholine)): −1.03%
YFP fluorescence quenching using Varenicline, 3 nM var (first column): −3.035
YFP fluorescence quenching using Varenicline, 3 nM var (second column): −0.786
YFP fluorescence quenching using Varenicline, 30 nM var (first column): −5.181
YFP fluorescence quenching using Varenicline, 30 nM var (second column): 0.669
YFP fluorescence quenching using Varenicline, 300 nM var (first column): −2.748
YFP fluorescence quenching using Varenicline, 300 nM var (second column): −6.708
YFP fluorescence quenching using Varenicline, 500 nM var (first column): −9.123
YFP fluorescence quenching using Varenicline, 500 nM var (second column): −9.869
YFP fluorescence quenching using Varenicline, 1 uM var (first column): −6.702
YFP fluorescence quenching using Varenicline, 1 uM var (second column): −7.26

B2: CODA1053: engineered receptor: R101M, L131A in SEQ ID NO: 33 (protein)
chain: MRCSPGGVWLALAASLLHVSLQGEFQRKLYKELVKNYNPLERPVANDSQPLTVYFSLSLLQIMDVDEKNQVLTTNIWLQMSWTDHYLQWNVSEYPGVKTVMFPDGQIWKPDILLYNSADERFDATFHTNVAVNSSGHCQYLPPGIFKSSCPMDLKNFPMDVQTCKLKFGSWSYGGWSLDLQMQEADISGYIPNGEWDLVGIPGKRSERFYECCKEPYPDVTFTVTMRRRMGYYLIQMYIPSLLIVILSWISFWINMDAAPARVGLGITTVLTMTTQSSGSRASLPKVSYVKAIDIWMAVCLLFVFSALLEYAAVNFVSRQHKELLRFRRKRRHHKSPMLNLFQEDEAGEGRFNFSAYGMGPACLQAKDGISVKGANNSNTTNPPPAPSKSPEEMRKLFIQRAKKIDKISRIGFPMAFLIFNMFYWIIYKIVRREDVHNQ
modifications: synthetic sequence of chimeric LGIC
YFP fluorescence quenching using CNL001 (percent quench) [1]: −8.554%
YFP fluorescence quenching using CNL001 (percent quench) [2]: −13.711%
YFP fluorescence quenching using TC-5619/Bradanicline (percent quench) [3]: 0.008%
YFP fluorescence quenching using TC-5619/Bradanicline (percent quench) [4]: 43.21%
YFP fluorescence quenching using CNL001 (percent quench) [5]: 39.631%
YFP fluorescence quenching using CNL001 (percent quench) [6]: 66.809%
YFP fluorescence quenching using TC-5619/Bradanicline (percent quench) [7]: 77.672%
YFP fluorescence quenching using TC-5619/Bradanicline (percent quench) [8]: 76.277%
YFP fluorescence quenching using CNL001 (percent quench) [9]: 82.122%
YFP fluorescence quenching using CNL001 (percent quench) [10]: 82.031%
YFP fluorescence quenching using ABT-126 (percent quench) (50 nM abt (ABT-126)): −27.01%
YFP fluorescence quenching using CNL001 (percent quench) [11]: 83.312%
YFP fluorescence quenching using CNL001 (percent quench) [12]: 83.986%
YFP fluorescence quenching using ABT-126 (percent quench) (100 nM abt (ABT-126)): −18.76%
YFP fluorescence quenching using TC-5619/Bradanicline (percent quench) [13]: 76.856%
YFP fluorescence quenching using ABT-126 (percent quench) (300 nM abt (ABT-126)): −17.8%
YFP fluorescence quenching using TC-5619/Bradanicline (percent quench) [14]: 75.32%
YFP fluorescence quenching using CNL001 (percent quench) [15]: 84.363%
YFP fluorescence quenching using CNL001 (percent quench) [16]: 83.877%
YFP fluorescence quenching using ABT-126 (percent quench) (1 uM abt (ABT-126)): −6.55%
YFP fluorescence quenching (percent quench) (10 uM ach (acetylcholine)): −3.98%
YFP fluorescence quenching (percent quench) (100 uM ach (acetylcholine)): −11%
YFP fluorescence quenching (percent quench) (300 uM ach (acetylcholine)): −7.92%
YFP fluorescence quenching (percent quench) (500 uM ach (acetylcholine)): 7.36%
YFP fluorescence quenching (percent quench) (1 mM ach (acetylcholine)): 57.28%
YFP fluorescence quenching (percent quench) (3 mM ach (acetylcholine)): 60.54%
YFP fluorescence quenching (percent quench) (10 mM ach (acetylcholine)): 79.46%
YFP fluorescence quenching using Varenicline, 3 nM var (first column): 74.835
YFP fluorescence quenching using Varenicline, 3 nM var (second column): 76.119
YFP fluorescence quenching using Varenicline, 30 nM var (first column): 77.608
YFP fluorescence quenching using Varenicline, 30 nM var (second column): 79.015
YFP fluorescence quenching using Varenicline, 300 nM var (first column): 80.71
YFP fluorescence quenching using Varenicline, 300 nM var (second column): 79.002
YFP fluorescence quenching using Varenicline, 500 nM var (first column): 78.709
YFP fluorescence quenching using Varenicline, 500 nM var (second column): 78.884
YFP fluorescence quenching using Varenicline, 1 uM var (first column): 79.688
YFP fluorescence quenching using Varenicline, 1 uM var (second column): 80
